Results as given in patent US20260152577A1.

Target: human CD3 on T cells (human) (UniProt P07766)
Experiment: FACS on Jurkat cells

affinity: 0.27 nM
Substance: OKT3-hIgG1 (antibody)
